According to patent US20220127309A1:

Tests used:
[1] = molecular target: Ectodomain of RSV F (1-520) - HIV GP160-based SSM (Respiratory Syncytial virus); experiment: ELISA, printed as affinity (FIG. 1A)
[2] = molecular target: Ectodomain of RSV F (1-513) - DScav mutations - Foldon SSM (Respiratory Syncytial virus); experiment: ELISA, printed as affinity (FIG. 1B)
[3] = molecular target: Ectodomain of RSV F (1-520) - DScav mutations - HIV GP160-based SSM (Respiratory Syncytial virus); experiment: ELISA, printed as affinity (FIG. 1B)
[4] = molecular target: Ectodomain of RSV F (1-513) - DScav mutations - Foldon SSM (Respiratory Syncytial virus); experiment: ELISA, printed as affinity (FIG. 1C)
[5] = molecular target: Ectodomain of RSV F (1-520) - DScav mutations - HIV GP160-based SSM (Respiratory Syncytial virus); experiment: ELISA, printed as affinity (FIG. 1C)

Row | Substance | Kd [1] [nM] | Kd [2] [nM] | Kd [3] [nM] | Kd [4] [nM] | Kd [5] [nM]
1 | Prefusion specific monoclonal antibody D25 | 23.4 | 1.3 | 1.2 |  | 
2 | Broadly cross-neutralizing, prefusion specific monoclonal antibody MPE8 |  |  |  | 10.8 | 7.6
